These results are taken from patent US20110165265A1, “TRAIL VARIANTS FOR TREATING CANCER” (FUNDACIÓ GENÒMICA (CRG), priority 2007, published 2011).

The conditions of series [1]: acknowledged value; cited from earlier work.
A further series has as its system Colo205 tumors. As to the kind of experiment: Colo205 tumors in athymic nude mice. Type of series: in vivo. The settings on record: 1 and 5 mg/kg IP.
A further series relates to EM-2 cells. Nature of the series: Cytotoxicity in EM-2 cells. Type of series: cell-based. The text has this: Similar results were obtained by using EM-2 chronic myeloid leukemia cells expressing only the DR4 receptor and lacking the DR5 receptor and by using the ovarian cancer cell line A2780, which expresses DR5 but lacks DR4 on its surface and is relatively insensitive toward TRAIL-induced cell death.

Series [2] has as its system A2780 cells. As to the kind of experiment: Microculture tetrazolium cytotoxicity assay in A2780. Type of series: cell-based, human. Particulars: A2780, 96 h. The protocol:
The microculture tetrazolium assay, performed as described earlier^36, was used to measure cytotoxicity. […] In cell viability assays assessing combination treatment with cisplatin, the cells were pre-incubated for 4 h (h) with 2.5 μM cisplatin (inhibitory concentration 20%-IC20), before addition of 0-25 ng/ml TRAIL or TRAIL-DR5.

Series [3] addresses T1, DR5 (Homo sapiens, UniProt O14763).
T1 construct: Effect of soluble recombinant DR5-Ig (sDR5) on apoptosis induction
Particulars: surface plasmon resonance; read-out: binding affinity Kd for DR5; cited from earlier work.

In the next series the test system is Colo205 cells. Nature of the series: Annexin V apoptosis assay in Colo205. The settings on record: Colo205, 3 h. Type of series: cell-based, human. The protocol:
Colo205 cells express all four TRAIL receptors, and are sensitive to TRAIL-induced apoptosis, which is mediated predominantly via DRS in these cells^10. […] Induction of cell death was measured by Annexin V assay, wherein externalization of phosphatidyl serine (PS) on the plasma membrane of apoptotic cells was detected using Annexin V-FITC (IQ Corporation, Groningen, The Netherlands). Briefly, cells were trypsinized and were then collected by centrifugation at 400 g, washed in ice-cold calcium buffer (10 mM HEPES/NaOH, pH 7.4, 140 mM NaCl, 2.5 mM CaCl2) and incubated with Annexin V-FITC for 15 min in the dark prior to acquisition on a FACSCalibur flow cytometer (Becton Dickinson).

A further series deals with BJAB cells. As to the kind of experiment: Cytotoxicity in BJAB cells. It is filed as cell-based.
The next series deals with VACO-235 and VACO330. Nature of the series: Sensitivity of colon adenoma cell lines. The settings on record: 96 hours. It is filed as cell-based, human. The method, then:
The colon adenoma cell lines VACO-235 and VACO330 were treated with TRAIL or D269H/E195R for 96 hours. […] Sensitivity could be further enhanced using TRAIL or D269H/E195R in combination with the cdk inhibitor roscovitine.

The next series has as its target T2, DcR1 (Homo sapiens, UniProt O14798).
T2 construct: soluble, recombinant DcR1-Ig (sDcR1) and DcR2-Ig (sDcR2); purchased R&D Systems
T2 sequence (O14798 26-236 limits assumed): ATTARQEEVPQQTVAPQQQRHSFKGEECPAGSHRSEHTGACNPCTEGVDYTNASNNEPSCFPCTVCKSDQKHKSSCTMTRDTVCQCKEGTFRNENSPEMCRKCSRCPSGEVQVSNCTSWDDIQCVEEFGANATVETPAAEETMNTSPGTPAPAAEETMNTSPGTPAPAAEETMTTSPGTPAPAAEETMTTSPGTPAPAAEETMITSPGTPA
As to the kind of experiment: SPR receptor binding assay, immobilized DcR1-Ig. Particulars: 0.1-250 nM ligand. The protocol: (§1) The response data (in response units) as a function of TRAIL concentration were fitted using a four parameter equation to give an apparent pre-steady state affinity constant.
(§2) Binding experiments were performed at 37° C. using a surface plasmon resonance-based biosensor (Biacore 3000, Biacore AB, Uppsala, Sweden) as previously described^10. In short, DcR1-Ig and DcR2-Ig receptor chimeras (R&D Systems) were captured at a 35 μl/min flow rate using a protein A (Sigma) modified CM5 sensor chip (Biacore). Receptor chimeras were captured at a level of ˜500-800 response units (RU). […] Binding of ligands to the receptors was monitored in real-time. Between injections the protein A sensor surface was regenerated using a 30s pulse of 0.1 M glycine 0.5 M NaCl pH 3. Due to the very slow dissociation of the TRAIL-receptor complex, only pre-steady state binding data could be obtained. In order to obtain data that represent proper high-affinity complex formation, the response at each concentration was recorded 30 sec after the end of the injection. The response data (in response units) as a function of TRAIL concentration were fitted using a four parameter equation to give an apparent pre-steady state affinity constant.
(§3) Affinity of the ligands was assessed by measuring receptor binding in a concentration range of 0.1-250 nM.

The target in series [4] is T1, DR5. As to the kind of experiment: SPR binding to immobilized DR5-Ig.
Series [5] has as its system A2780 cells. As to the kind of experiment: Sensitivity of ovarian carcinoma cell line A2780 (Example 4). It is filed as cell-based, human. The source says: The ovarian carcinoma cell line A2780 expresses very low levels of DR4, and high levels of the other three membrane-bound TRAIL receptors. Sensitivity of these cells to wild type TRAIL and the DR5-specific variant was compared initially as a single agent. The sensitivity pattern is illustrated in the Table 6, with + indicating minimally sensitive, ++ moderately sensitive and +++ very sensitive.

The subject of series [6] is A2780 cells. Nature of the series: MTT cytotoxicity in A2780 (Example 6). It is filed as cell-based. Particulars: A2780 (FIG. 8E).
Another series deals with T3, DcR2 (Homo sapiens, UniProt Q9UBN6).
T3 construct: soluble, recombinant DcR1-Ig (sDcR1) and DcR2-Ig (sDcR2); purchased R&D Systems
T3 sequence (Q9UBN6 56-211 limits assumed): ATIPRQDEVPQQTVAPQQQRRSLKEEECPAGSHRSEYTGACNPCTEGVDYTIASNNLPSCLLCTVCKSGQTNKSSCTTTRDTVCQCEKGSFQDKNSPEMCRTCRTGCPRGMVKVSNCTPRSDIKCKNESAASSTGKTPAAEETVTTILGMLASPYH
As to the kind of experiment: SPR receptor binding assay, immobilized DcR2-Ig. Particulars: 0.1-250 nM ligand. The method, then: as §1, §2, §3

The target in the next series is T4, DR4 (Homo sapiens, UniProt O00220).
T4 construct: the more commonly used dimeric TRAIL-receptor-IgG Fc chimeric constructs
T4 sequence (O00220 24-239 limits assumed): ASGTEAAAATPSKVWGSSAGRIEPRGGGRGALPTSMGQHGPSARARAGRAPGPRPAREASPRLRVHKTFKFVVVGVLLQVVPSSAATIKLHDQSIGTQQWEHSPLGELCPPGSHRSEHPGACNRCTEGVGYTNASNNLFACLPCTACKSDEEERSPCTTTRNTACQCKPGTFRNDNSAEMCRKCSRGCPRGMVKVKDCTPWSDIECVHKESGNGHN
Nature of the series: SPR binding to immobilized DR4-Ig. The settings on record: pre-steady state SPR. The source says:
In other experiments dissociation was continued for periods of up to 2,000 sec, with similar results. As a consequence it is essentially impossible to obtain a dissociation rate constant and thus to calculate the affinity from the association and dissociation rate constants. We therefore chose to use the pre-steady state approach to analyse the data^10. […] With these two changes this variant has become an TRAIL variant that binds to DR5 with high selectivity and affinity.

Entries after “also recorded” stand apart in the source; their conditions may differ. A value given as a limit tells only on which side of the number the result lay.

B1: wtTRAIL: wild-type soluble recombinant human TRAIL, amino acids 114-281 (SEQ ID NO: 3) (protein, listed as Homo sapiens)
chain: MVRRGRVAAHTGTRGRSNTSSNSKNKAGRKNSWSSRSGHSSNHRNGVHKGYYYSTYRKNTKNDKMVYYKYTSYDMKSARNSCWSKDAYGYSYGGKNDRVSVTNHDMDHASGAVG
modifications: TRAIL 114-281
Take B1: the half life result in series [1] was “approximately 30 minutes”. Besides, the “anti-tumor effect, single therapy” value with Colo205 tumors is “neither of the two concentrations of wtTRAIL give an anti-humor effect; also recorded: do not give an anti-tumor effect”. Also, in the series with EM-2 cells (EM-2, 50 ng/ml), the cell death is more than 80%. Moreover, the “cell survival / viability” value in the series with A2780 cells [2] is given as “dose dependent loss of viability”. In addition, the Kd with DR5 [3] is 7.2 nM.

B2: D269HE195R: rhTRAIL (114-281) carrying mutations D269H and E195R; DR5-selective TRAIL variant (protein)
chain: MVRERGPQRVAAHITGTRGRSNTLSSPNSKNEKALGRKINSWESSRSGHSFLSNLHLRNGELVIHEKGFYYIYSQTYFRFQERIKENTKNDKQMVQYIYKYTSYPDPILLMKSARNSCWSKDAEYGLYSIYQGGIFELKENDRIFVSVTNEHLIDMHHEASFFGAFLVG
With B2, the “increase in apoptosis / cytotoxic potential compared to wtTRAIL (based on IC50)” value in the series on Colo205 cells is 2.7-4.2 fold; in the series on Colo205 cells (listed as D269H/E195R), 3.3-4.2 fold. Moreover, the cell death induction result with BJAB cells (BJABDR5 DEF cells) is reported as “unable to induce significant cell death”; in the series with BJAB cells (BJABwt cells), “able to induce cell death”; in the series on EM-2 cells (EM-2 cells) it was “hardly any apoptosis”. Moreover, in the series with BJAB cells (BJABDR5 DEF+DR5 cells), the cytotoxic potential result is given as “restored”. In the series with VACO-235 and VACO330, the “sensitivity of adenoma cell lines” value is recorded as “more sensitive to D269H/E195R”. Moreover, the “binding towards DcR1, reduction compared to wtTRAIL” value with DcR1 is “approximately 20 fold”. Besides, the “increase in association rate constant (kon) for binding to DR5 compared to wtTRAIL” value in the series with DR5 [4] is “less than 5 fold”. Also, the “affinity for DR5-Ig compared to wtTRAIL” value with DR5 [4] (pre-steady state SPR) is given as “increased several fold”. Further, the “efficacy in combination with Cisplatin” value in the series with A2780 cells [5] was “higher efficacy than wtTRAIL”. The “sensitivity compared to wild type TRAIL, single agent” value in the series with A2780 cells [5] is “increased sensitivity”. In the series on A2780 cells [6], the “cytotoxic activity compared with wild-type TRAIL” value was “significantly increased”. Also, in the series with A2780 cells [2], the “cell survival / viability” value was “decreased cell survival more effectively than TRAIL”. Besides, the “binding toward DcR2 compared to wtTRAIL” value with DcR2 is “reduced”. Besides, the “affinity for DR4-Ig compared to wtTRAIL” value with DR4 is listed as “almost abolished”.
